# Measured values reported in the supplement of paper PMC6757056.
# ± gives the standard deviation of the averaged measurements.
# B1: library; a variant is named by its letters at N, in order (parent)
# chain: GCUGUCACCGAGAAACUGUGAAGUAUAUCUUAAACCUGGGCACUUAAAAGAUAUAUGGAGUUAGUAGUGCAACCUGCUCGGUCUGAUGAGUCCNNNNNNGGACGAAACAGC
# How the values were obtained:
# cyclic di-GMP [1] = variants of: B1; experiment: normalized RNA/DNA level without ligand (relative to sTRSVctl = 100) (log10 (% of sTRSVctl)); HEK293T; ligand: cyclic di-GMP (c-di-GMP-II aptamer); higher = less ribozyme self-cleavage, higher mRNA level; settings: reporter: mCherry (pCS4076), ligand present: no
# Summary of the method: (§1)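 Ribozyme switch library plasmids linked to reporters were introduced into HEK293T cells at 4 µg per 6-well well, with ligand, if any, added 1 h before. Total RNA was extracted with EDTA 72 h later, reverse-transcribed, amplified, barcoded and sequenced. RNA level was computed from RNA over DNA reads relative to a spiked-in non-cleaving sequence or the top sequences, then scaled and log-transformed. The top set was 25 sequences, values were ×100 and log10, and the cutoff was ≥100 DNA reads.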
# cyclic di-GMP [2] = variants of: B1; experiment: normalized RNA/DNA level with ligand (relative to sTRSVctl = 100) (log10 (% of sTRSVctl)); HEK293T; ligand: cyclic di-GMP (c-di-GMP-II aptamer); ligand concentration (+) RNA-Seq: 1 mM; higher = less ribozyme self-cleavage, higher mRNA level; settings: reporter: mCherry (pCS4076), ligand present: yes
# Summary of the method: as §1
Variant,normalized RNA/DNA level without ligand (log10) (cyclic di-GMP [1]),normalized RNA/DNA level with ligand (log10) (cyclic di-GMP [2])
GCUGUCACCGAGAAACUGUGAAGUAUAUCUUAAACCUGGGCACUUAAAAGAUAUAUGGAGUUAGUAGUGCAACCUGCUCGGUCUGAUGAGUCCUGGUGGGGACGAAACAGC [UGGUGG],1.68 ± 0.017,1.81 ± 0.12
GCUGUCACCGAGAAACUGUGAAGUAUAUCUUAAACCUGGGCACUUAAAAGAUAUAUGGAGUUAGUAGUGCAACCUGCUCGGUCUGAUGAGUCCAUACUUGGACGAAACAGC [AUACUU],1.658 ± 0.0084,1.83 ± 0.13
GCUGUCACCGAGAAACUGUGAAGUAUAUCUUAAACCUGGGCACUUAAAAGAUAUAUGGAGUUAGUAGUGCAACCUGCUCGGUCUGAUGAGUCCGCCACUGGACGAAACAGC [GCCACU],1.684 ± 0.016,1.86 ± 0.12
GCUGUCACCGAGAAACUGUGAAGUAUAUCUUAAACCUGGGCACUUAAAAGAUAUAUGGAGUUAGUAGUGCAACCUGCUCGGUCUGAUGAGUCCUAUUGGGGACGAAACAGC [UAUUGG],1.75 ± 0.061,1.87 ± 0.076
GCUGUCACCGAGAAACUGUGAAGUAUAUCUUAAACCUGGGCACUUAAAAGAUAUAUGGAGUUAGUAGUGCAACCUGCUCGGUCUGAUGAGUCCGGCAACGGACGAAACAGC [GGCAAC],1.72 ± 0.05,1.82 ± 0.1
GCUGUCACCGAGAAACUGUGAAGUAUAUCUUAAACCUGGGCACUUAAAAGAUAUAUGGAGUUAGUAGUGCAACCUGCUCGGUCUGAUGAGUCCGUAAACGGACGAAACAGC [GUAAAC],1.57 ± 0.017,1.74 ± 0.038
GCUGUCACCGAGAAACUGUGAAGUAUAUCUUAAACCUGGGCACUUAAAAGAUAUAUGGAGUUAGUAGUGCAACCUGCUCGGUCUGAUGAGUCCUACCACGGACGAAACAGC [UACCAC],1.698 ± 0.0019,1.82 ± 0.11
GCUGUCACCGAGAAACUGUGAAGUAUAUCUUAAACCUGGGCACUUAAAAGAUAUAUGGAGUUAGUAGUGCAACCUGCUCGGUCUGAUGAGUCCAGUUGGGGACGAAACAGC [AGUUGG],1.63 ± 0.043,1.8 ± 0.11
GCUGUCACCGAGAAACUGUGAAGUAUAUCUUAAACCUGGGCACUUAAAAGAUAUAUGGAGUUAGUAGUGCAACCUGCUCGGUCUGAUGAGUCCCGAGGCGGACGAAACAGC [CGAGGC],1.74 ± 0.027,1.85 ± 0.079
GCUGUCACCGAGAAACUGUGAAGUAUAUCUUAAACCUGGGCACUUAAAAGAUAUAUGGAGUUAGUAGUGCAACCUGCUCGGUCUGAUGAGUCCGUACCUGGACGAAACAGC [GUACCU],1.73 ± 0.029,1.83 ± 0.13
GCUGUCACCGAGAAACUGUGAAGUAUAUCUUAAACCUGGGCACUUAAAAGAUAUAUGGAGUUAGUAGUGCAACCUGCUCGGUCUGAUGAGUCCAGGACUGGACGAAACAGC [AGGACU],1.66 ± 0.014,1.82 ± 0.088
GCUGUCACCGAGAAACUGUGAAGUAUAUCUUAAACCUGGGCACUUAAAAGAUAUAUGGAGUUAGUAGUGCAACCUGCUCGGUCUGAUGAGUCCAGUGUGGGACGAAACAGC [AGUGUG],1.57 ± 0.084,1.71 ± 0.13
GCUGUCACCGAGAAACUGUGAAGUAUAUCUUAAACCUGGGCACUUAAAAGAUAUAUGGAGUUAGUAGUGCAACCUGCUCGGUCUGAUGAGUCCCAGAGCGGACGAAACAGC [CAGAGC],1.67 ± 0.036,1.83 ± 0.09
GCUGUCACCGAGAAACUGUGAAGUAUAUCUUAAACCUGGGCACUUAAAAGAUAUAUGGAGUUAGUAGUGCAACCUGCUCGGUCUGAUGAGUCCUCAUAUGGACGAAACAGC [UCAUAU],1.54 ± 0.037,1.72 ± 0.13
GCUGUCACCGAGAAACUGUGAAGUAUAUCUUAAACCUGGGCACUUAAAAGAUAUAUGGAGUUAGUAGUGCAACCUGCUCGGUCUGAUGAGUCCGAUCGUGGACGAAACAGC [GAUCGU],1.65 ± 0.046,1.81 ± 0.087
GCUGUCACCGAGAAACUGUGAAGUAUAUCUUAAACCUGGGCACUUAAAAGAUAUAUGGAGUUAGUAGUGCAACCUGCUCGGUCUGAUGAGUCCGCCUCGGGACGAAACAGC [GCCUCG],1.761 ± 0.0043,1.892 ± 0.0091
GCUGUCACCGAGAAACUGUGAAGUAUAUCUUAAACCUGGGCACUUAAAAGAUAUAUGGAGUUAGUAGUGCAACCUGCUCGGUCUGAUGAGUCCUUAAAGGGACGAAACAGC [UUAAAG],1.65 ± 0.023,1.81 ± 0.11
GCUGUCACCGAGAAACUGUGAAGUAUAUCUUAAACCUGGGCACUUAAAAGAUAUAUGGAGUUAGUAGUGCAACCUGCUCGGUCUGAUGAGUCCCCGACGGGACGAAACAGC [CCGACG],1.6 ± 0.089,1.79 ± 0.052
GCUGUCACCGAGAAACUGUGAAGUAUAUCUUAAACCUGGGCACUUAAAAGAUAUAUGGAGUUAGUAGUGCAACCUGCUCGGUCUGAUGAGUCCUCUUGUGGACGAAACAGC [UCUUGU],1.732 ± 0.004,1.88 ± 0.1
GCUGUCACCGAGAAACUGUGAAGUAUAUCUUAAACCUGGGCACUUAAAAGAUAUAUGGAGUUAGUAGUGCAACCUGCUCGGUCUGAUGAGUCCCGUCCAGGACGAAACAGC [CGUCCA],1.53 ± 0.11,1.72 ± 0.1
GCUGUCACCGAGAAACUGUGAAGUAUAUCUUAAACCUGGGCACUUAAAAGAUAUAUGGAGUUAGUAGUGCAACCUGCUCGGUCUGAUGAGUCCCGCCAGGGACGAAACAGC [CGCCAG],1.76 ± 0.075,1.9 ± 0.072
GCUGUCACCGAGAAACUGUGAAGUAUAUCUUAAACCUGGGCACUUAAAAGAUAUAUGGAGUUAGUAGUGCAACCUGCUCGGUCUGAUGAGUCCUUUGACGGACGAAACAGC [UUUGAC],1.71 ± 0.03,1.87 ± 0.11
GCUGUCACCGAGAAACUGUGAAGUAUAUCUUAAACCUGGGCACUUAAAAGAUAUAUGGAGUUAGUAGUGCAACCUGCUCGGUCUGAUGAGUCCUGCUGGGGACGAAACAGC [UGCUGG],1.696 ± 0.014,1.87 ± 0.15
GCUGUCACCGAGAAACUGUGAAGUAUAUCUUAAACCUGGGCACUUAAAAGAUAUAUGGAGUUAGUAGUGCAACCUGCUCGGUCUGAUGAGUCCGCCUUCGGACGAAACAGC [GCCUUC],1.61 ± 0.038,1.79 ± 0.099
GCUGUCACCGAGAAACUGUGAAGUAUAUCUUAAACCUGGGCACUUAAAAGAUAUAUGGAGUUAGUAGUGCAACCUGCUCGGUCUGAUGAGUCCAUUAUGGGACGAAACAGC [AUUAUG],1.58 ± 0.022,1.77 ± 0.1
GCUGUCACCGAGAAACUGUGAAGUAUAUCUUAAACCUGGGCACUUAAAAGAUAUAUGGAGUUAGUAGUGCAACCUGCUCGGUCUGAUGAGUCCCAUCACGGACGAAACAGC [CAUCAC],1.67 ± 0.027,1.8 ± 0.069
